Results reported in a protein production outcome set (Wang et al. 2014).

Experiment: label from the status in PepcDB records

| Sequence | protein production |
| --- | --- |
| MKFRGNFVCQPRAGPAESRPTRPFTPRPSATGSLFMSNQHFVSPDLIRQGFSRAMSDMYREEVPLYGALMELVAEVNAQVLERQPALARHLQSSGELQRLDLERHGAIRVGSAAELATLARLFAVMGMQPVGYYDLTPAGVPVHSTAFRAVHEAALQVSPFRVFTSLLRLELIDNPELRSFAEQVLARRQIFTPQVLELIQQAEAAGGLDAEDAERFIRQALETFRWHHHATVTAAQYASLSAQHRLIADVVAFKGPHINHLTPRTLDIDEVQRLMPARGITPKAVIEGPPRRECPILLRQTSFKALEESVAFTDQAQSQGSHSARFGEIEQRGAALTPKGRELYDRLLNAARDALGDFPNEANAQRYNQLMQEHFREFPDSHPAMREQGLAYFRYFVSETGLAARNQPQRPTTLAALLAAGHLSAEPLVYEDFLPVSAAGIFQSNLGDDSQSHYAGQSNRQAFEAALGRPTLDELQLYAQTQQRSLEHCAATLGLPAL | failed |
| MFNDWRRVLALSGKALGAILFCEAVGLLAAWVTQTSVTTWYPTLTKPSFTPPNWVFAPAWTTLYALMGVAAFLVWRCGPDRTRVRTALTAFGLQLAANAGWSFAFFGARSPALGLVVILGLWGLLAWTMDRFFRVRPVAGWLLVPYLAWVTYALALNAAIWGLN | failed |
| GIPSLVATAERRMKLVPGSVVMQFASIGFDVAVFELSMALCTGSRLVIVPDESRVAGPELTDFMAAHAVTHAIIPPSLLAALPSGCDVPEGCTVLVGTETVPPELIGRWAERLNLLAAYGLTEATVNNTLWQAQPGWDSAVPIGIP | failed |
| MNATHEALAIRARPRPASAPSAVLTLAWRAMLKIKHVPFQLFDVTVTPIMFTLLFTFIFGGALAGSPRQYVQYLVPGVLVQTVLFITVYTGVGLNSDIRKGLYDRFRSLPMWQPAPLLGALAGDVFRYSVAGGVILVVGFILGFRPQGGAPGVLAAMALVLVFSFALSWLWIVVGMLVRTPESVMTTSFVFLMPLTFASDIFVGLGTMPGWLQGVVRHNPVTHLANASRDLMHGRPAGADVSWTLLASLVIVAAVAPLAMRLYRKER | failed |
| MSSARFDSSDRSAWYMGPVSRQEAQTRLQGQRHGMFLVRDSSTCPGDYVLSVSENSRVSHYIINSLPNRRFKIGDQEFDHLPALLEFYKIHYLDTTTLIEPAPRYPSPPMGSVSAPNLPTAEDNLEYVRTLYDFPGNDAEDLPFKKGEILVIIEKPEEQWWSARNKDGRVGMIPVPYVEKLVRSSPHGKHGNRNSNSYGIPEPAHAYAQPQTTTPLPAVSGSPGAAITPLPSTQNGPVFAKAIQKRVPCAYDKTALALEVGDIVKVTRMNINGQWEGEVNGRKGLFPFTHVKIFDPQNPDENE | not failed |
| TDLPMPRVTVFALWEPLAIMRELWAEGGIGPGRLAVMDRVKGPKTGLLMRHQDKPGGVAFVAIHDGVAMLHALEIPPHQRRKGLGKWAMRGAAFWALDNGAHTLSVICTKANEGANALYRSLGMQLVGEYHYRLLQE | failed |
| VNSVAARVTELTGREVAAVAERGHSHRWHLYRVELADGTPLFVKALPDDAPALDGLFRAEALGLDWLGRSFGSPVPQVAGWDDRTLAMEWVDERPPTPEAAERFGHQLAAMHLAGAESFGATWDGYIGPLPMDNTPRSTWPEFYAEQRILPYLRRAADRGALTPGDVRLVEKVLDALDHLAGDPEPPARIHGDLWNGNVLWQDDGAVVIDPAAHGGHREADLAMLALFGLPYLDRVRDAYNEVAPLAEGWRARIPLHQLHPLLVHVCLFGAAYRTTLVDTARAALRA | not failed |
| MIEQPSPKVYDELLSIWEEAVRSTHHFLTEADIQFYKPLIRHEYLAAVRLYIIREDSGTIAAFMGLSNDCIEMLFVRPNAHGHGYGSRLVEFAIRKKRIYKVDVNEQNAAALGFYLHMGFETTGRDALDATGKPFPILHLQIPPIRLRK | failed |
| MHPVLIFLFALIAILLFTAKFRLHPFLSLVLVSLLTGILAGEPIRTIEAVTEGLGSVFSRFAIIITSGSIIGLLLQKTGGMSLIASDITRFFKNPLLALSFLGFLFSVPTMCYILAYVIFIPIAKELSSRFNYPPISTATALALGAVASFNLVYPSPVIISAAEELSANRDMLILLGFLTAVPTSFSGYLYARSLGKAEVSGMNEGGVIREKTIVKEKKDLSQENGALQRTENRKPGRFEAYAPIFIPLFLILFEAVLNNPNTLFTFLGNPNVALLIGVLLSIFSGRVLGLPMIRVQVEKAIKRSGVVLLDLCGGGALGATLAMTGAGEALGKFFLQFNLPHILVPFLVAAALQTVQGSRVVTMLVAPSLLLPLVPELGLPPEILILSMASGTFMISHVNDPFFWIFGELAELTPSEVFRSNTLGNALMGVVSFLIVSGIYFFFY | failed |
| MPKLPLLLSFPLLFFASFAYADEDFVTCYSVLKFINANDGSRLHSHDVKYGSGSGQQSVTAVKNSDDINSHWQIFPALNAKCNRGDAIKCGDKIRLKHLTTGTFLHSHHFTAPLSKQHQEVSAFGSEAESDTGDDWTVICNGDEWLESEQFKLRHAVTGSYLSLSGQQFGRPIHGQREVVGTDSITGGSAWKVAEGIYIKHQQKDL | not failed |
| SIVIIFNPNSTGDAPELAQQLHGKLKELLTYQPEITLQPTEHAGHAVDLAREAASKGGDVLVVSVSGDGGYNEVVNGVMQADNPRAVAAVLAAGNANDHSRIIGTKPLEEAIAEGRVHNIDLLRIHTG | failed |
| MTAPAPQTKNAAWGWVLLAGLFEVGFTYALKMSQHDGKYLGLFLLCAIVSFECLAQALKTLPVGLAYAVWTGIGSVGTILVGLVLFGDSLSALRLGLLTVLIGSIAGLKIVDR | failed |
| MKFILRLGLALLTGFVSVSTASAQAYGTADTNAPELRVPKSVQPAFDYWMRDTWATLGPDGYYYITGTTSTPDRHFPGQRHCWDWNDGLYLWRSKDLKIWEAMGRIWSMEKDGTWQKDPKVYKEGEKYAKKSINNDPMDNRFHAVWAPEMHYIKSAKNWFIVACMNQSAGGRGSFILRSTTGKPEGPYENIEGNEDKAIFPNIDGSLFEDTDGTVYFVGHNHYIARMKPDMSGLAEEIKTLKESKYSPEPYVEGAFIFKYDGKYHLVQAIWAHRTVKGDTYVEKEGLTNKKTRYSYDCIIATADNVYGPYGKRYNAITGGGHNNLFQDKDGNWWATMFFNPRGAQAAEYKVTCRPGLIPMLYENGKFKPNHNYQAK | failed |
| MHIPLWHSRVPSATLSRSHSVLLPLSLTAHSPKRARLVAMSTNPEIPQWFALTPRVWTTSVEPESVTCGLVAGEDHVLLIDTGSTPEQGHTLAMSAARMLGRPVDRIVVTHHHYDHSGGLPGITDAEVWMHEAALAHCPDLHVDHPVSLMAYVNLGGLGAEVIHPGPAHTDGDLIVIVRDEKITFVGDLVETAGEPQSDGTTDVRGWPRAIDSVITGTDGAGLYVPGHGQPIDATDVMNQRAQLAERIPTNIPLTDRHIPLP | failed |
| MDRRRFLVGLLGLGLARGQGLRVEEVVGGLEVPWALAFLPDGGMLIAERPGRIRLFREGRLSTYAELSVYHRGESGLLGLALHPRFPQEPYVYAYRTVAEGGLRNQVVRLRHLGERGVLDRVVLDGIPARPHGLHSGGRIAFGPDGMLYVTTGEVYERELAQDLASLGGKILRLTPEGEPAPGNPFLGRRGARPEVYSLGHRNPQGLAWHPKTGELFSSEHGPSGEQGYGHDEVNLIVPGGNYGWPRVVGRGNDPRYRDPLYFWPQGFPPGNLAFFRGDLYVAGLRGQALLRLVLEGERGRWRVLRVETALSGFGRLREVQVGPDGALYVTTSNRDGRGQVRPGDDRVLRLL | not failed |
| TPIINDPETVKLFLLTELQHEEREVFMVLFLDNQHRLIKKERLFLGTIYVSAVYPREIIKEALYCNAAALILAHNHPSGITEPSYSDQLITKKIQDAAELMEIRVLDHLIVGKSDCYSFAENCLL | failed |
| MSGGPVKTPFLSFIIPAYNEEQRLPSYLERVIGFFAGQSYSFEIVVVDDGSSDGTAALVKALMAQHSCLRLEALDRNRGKGFAVKTGMSAAKGQLRVFADADGATPVEEIRRLLDAREQGADIAIGSRAMRSDECIVQGRVHRKIMGTVFNGLIRALAVRGIHDSQCGFKLFTASAAEDIFPRQRITGFGFDVELLFLARRLGYVVVEVPVNWSDVEGTKVRLVRDSFRMLGEVLRIRFTNLTGGYGDIPGKTLEHHHHHH | failed |
| PYYLFMTMYWHHTSTTPVSTVLITHGYAEHQGRYSALVRSLLNYNFDVVTFDLPGHGYAPGPRACVDVDKLVDFHVALRHRAEQDCRLRTETMCLFGHSMGGLITALSVLEDSSNVSAVALSGPAFSPFPKTPRVVTRMLRCSARIAPRLKVLALPQDAISRDPEVVAAYANDPRNYTGRVPLLTGASMALAGQKALAQASQWDRSVPLLVMHGSADRLADIEGSRNFAASAGGTMRPVDGAFHEIFNEPEAPQLRAELCEWLHANCG | failed |
| MTWPARRVLYAIWQDPWMTVSRATYISRMLALVNWATWPDDADTSDTPAACVDGDCSRPNAPGERYPTFRWSDALVRELDAVLLSTEPYRFTEDHADALERQIGKPVLLVDGEMLSWYGSRAVAGARYLRSLAQGFLEHHHHHH | failed |
| KGVVTIEQIVDTLPDRGRSCWHLGAVWALSQFQENELFLGMYPEEHFIEKPVKEAMARFRKNLEAIVSVIAERNKKKQLPYYYLSPDRIPNSVAI | failed |
| MNAAQVQALIRMGLPMAEDIDFRVERLDERHALARIPFHGKLVRPGGTLSGPTIMALADAAMYAVILGRLGAVEMAVTSNLNINFLSKPRPEDLLAEASILKLGRRQVVCEVGVFSQSNEEDLVAHVTGTYALPLLEHHHHHH | not failed |
| MVCYNNPMELLMKIIAFSCHLFFIGLSYQLLISVIDWTKFSHYHPENLGRLRLFVFLLATALGYLVSHCMLELLQISQTLFFEFR | failed |
| MRAASVPFSQRTTCKGRDGFDQFQIAFASAAERDHSCDQGRRQPGGRPPIQVAAVSGFMHRQGKTPMPTLTINGRSLSVDAANDTPLLWAIREQLQMTGTKFGCGAGLCGACTVHVNGEAVRSCQTMVGDVAGKKITTIEGLSAKGDHPLQKAWIAEQVPQCGYCQSGQIMQAASLLAKNANPTKEEVVAHMDGNLCRCMTYSRIQKAIMRAATEMRTASASGNERRPT | failed |
| MNDHTAAIAAHFDQLAPNLDRWRRRNRTYYRDLEKLHRFWIPTGSRVLQVGSGLGDLLATVEPSFGIGIDVSPQAVAIAQQRHPQLQFHCLAAEELTPEAIGNPEPFDAIILTGVLSYLTDIQVVLEQLQAFCHPRTRLILGFHNFLWQPLLTAAEKVGQRSPQPPESWLGMQDVLNLLTLTGYEPIKQGLEHHHHHH | not failed |
| MESLRSERNQYRILVDITNSVLAHLDMDGLISEVSKEIHRFFGLNHISLMLCRTSSQNSHEGILYSSRYQTGKSVIRQQRKFSSANNKAEEIIHQNKPVLIDINKEDQDDVLIKRLVKQNMQTALLLPLAFNRKPLGLLILAHEISSVFTEETCQLLQQIAARIGIAIENAAAYEEITHLKDS | not failed |
| MYNLLLTILLVLSGLLEIAIFMQPQKNPSSNVFDSSGSEALFERTKARGFEAFMQRFTAVLVFFWLAIALVLAILSSK | failed |
| MEFLIILLLLVLNGIFAMYEIALVSSSKARLETLAGKGNKSARGVLKQLEEPEKFLSTIQIGITLIGIVSGAYGGVAIADDLVPLFSLIPGAEAYARNLAMITTVVIITYLSLIIGELVPKSIALSNPERYATLFSPIMILLTKVSYPFVWFLSISTRLLNRIIGVKNEERPMTQEEIKMILHQSSEQGVIDKEETEMLRDVFRFSDKRANELMTHRRDLVIFHPDDTKDKVMKTIEEEHYSKYLLVDERKDEIIGVVSVKDIILMVGNKKEFNLREIARPALFIPESLYANKILELFKKNKNKFGVVVNEYGSTEGIITLHDLTESIFGDILEEDDTEEEDIVRRQDGSMLVEASMNIKDFMEEMGILSYEDLEDEDFTTLGGLAMFLLGGIPKAGDIFTYKNLQFEVVDMDRGRVDKLLVIKRDEEE | failed |
| LRTIVELMENNLEETLSLDQLAAYSGRSRRQIDRLFQAQLGTSPRRYYMELRITKSRRLLQYSDLSVMEVAVACGFVSVSHFSKCYAAYFGYPPSREQRLGE | failed |
